Positions count from the first letter of the chain named. In names and notes the source's numbering stands.
How the values were obtained:
recombinant mouse TfR-1 = biological target: T1, recombinant mouse TfR-1 (mouse, UniProt Q62351 89-763, limits assumed); assay: ELISA, plate-coated recombinant TfR-1, anti-hFc HRP detection
T1 construct: also called mTfR-1
Protocol: (§1) TfR-1 binding ELISA. Nunc MaxiSorp plates were coated with 100 μl of 1 μg/ml of in-house purified recombinant human, mouse, rat and cynomolgus TfR-1 and incubated at 4° C. overnight. Plates were incubated with blocking buffer (2.5% non-fat dry milk in PBST) for 1 h at RT. Serially-diluted TXP1 was mixed with non-fat dry milk in PBST to a final concentration of 2.5% and incubated for 30 min. Blocked TXP1 solutions (100 μl) were transferred to the blocked plates and incubated for 1 hr. Plates were washed with PBST and incubated with anti-hFc HRP-conjugated antibody diluted 1:5,000 (Sigma) in blocking buffer for 30 min. Plates were washed and developed with SureBlue™ TMB substrate, the reaction stopped with 1% HCl and absorbance measured at 450 nm.

recombinant rat TfR-1 = biological target: T2, recombinant rat TfR-1 (rat, UniProt Q99376 87-761, limits assumed); assay: as above
T2 construct: also called rTfR-1
T2 sequence (Q99376 87-761 limits assumed): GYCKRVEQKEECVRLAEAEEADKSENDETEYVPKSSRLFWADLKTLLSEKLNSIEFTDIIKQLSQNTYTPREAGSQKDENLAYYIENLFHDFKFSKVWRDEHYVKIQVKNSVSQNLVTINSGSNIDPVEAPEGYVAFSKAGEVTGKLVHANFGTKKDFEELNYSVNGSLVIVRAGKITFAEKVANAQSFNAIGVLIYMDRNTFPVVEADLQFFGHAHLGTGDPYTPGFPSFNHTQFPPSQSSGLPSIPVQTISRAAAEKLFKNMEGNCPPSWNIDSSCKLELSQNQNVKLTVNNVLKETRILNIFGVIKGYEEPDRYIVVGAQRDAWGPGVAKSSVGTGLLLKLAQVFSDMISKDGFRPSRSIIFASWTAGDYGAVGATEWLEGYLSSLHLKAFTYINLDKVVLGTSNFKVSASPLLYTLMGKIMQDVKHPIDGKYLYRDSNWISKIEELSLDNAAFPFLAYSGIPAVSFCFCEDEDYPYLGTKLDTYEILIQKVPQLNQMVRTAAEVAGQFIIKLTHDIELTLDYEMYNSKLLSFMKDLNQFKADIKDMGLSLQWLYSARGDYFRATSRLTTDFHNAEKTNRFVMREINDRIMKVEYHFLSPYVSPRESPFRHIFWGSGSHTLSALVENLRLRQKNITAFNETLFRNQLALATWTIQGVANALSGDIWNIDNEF
Protocol: as §1

[1] = biological target: T3, recombinant cynomolgus TfR-1 (cynomolgus, UniProt H9EXL1 89-760 (rhesus entry)); assay: as above
T3 construct: also called cTfR-1; cTfR1
T3 sequence (chain, as listed by the source): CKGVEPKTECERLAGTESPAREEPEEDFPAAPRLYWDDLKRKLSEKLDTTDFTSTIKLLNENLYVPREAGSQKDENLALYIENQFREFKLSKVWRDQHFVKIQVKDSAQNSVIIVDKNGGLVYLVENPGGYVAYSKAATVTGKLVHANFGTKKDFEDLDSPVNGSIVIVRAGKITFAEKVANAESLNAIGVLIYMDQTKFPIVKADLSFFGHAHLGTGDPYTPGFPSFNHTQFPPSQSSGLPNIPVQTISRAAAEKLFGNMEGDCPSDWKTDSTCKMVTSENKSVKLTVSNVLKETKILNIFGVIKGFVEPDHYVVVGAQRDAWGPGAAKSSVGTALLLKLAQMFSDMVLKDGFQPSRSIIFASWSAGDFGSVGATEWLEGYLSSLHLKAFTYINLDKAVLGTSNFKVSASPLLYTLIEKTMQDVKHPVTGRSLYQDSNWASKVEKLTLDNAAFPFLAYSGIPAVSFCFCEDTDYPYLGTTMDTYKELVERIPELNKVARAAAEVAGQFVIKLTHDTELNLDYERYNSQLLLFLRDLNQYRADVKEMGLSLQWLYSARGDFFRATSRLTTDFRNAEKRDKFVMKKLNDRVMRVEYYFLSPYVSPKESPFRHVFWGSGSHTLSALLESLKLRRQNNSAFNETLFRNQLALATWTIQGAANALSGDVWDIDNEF
Protocol: as §1

recombinant human TfR-1 [2] = biological target: T4, recombinant human TfR-1 (human, UniProt P02786 89-760, limits assumed); assay: as above
T4 construct: also called hTfR-1; hTfR1
T4 sequence (P02786 89-760 limits assumed): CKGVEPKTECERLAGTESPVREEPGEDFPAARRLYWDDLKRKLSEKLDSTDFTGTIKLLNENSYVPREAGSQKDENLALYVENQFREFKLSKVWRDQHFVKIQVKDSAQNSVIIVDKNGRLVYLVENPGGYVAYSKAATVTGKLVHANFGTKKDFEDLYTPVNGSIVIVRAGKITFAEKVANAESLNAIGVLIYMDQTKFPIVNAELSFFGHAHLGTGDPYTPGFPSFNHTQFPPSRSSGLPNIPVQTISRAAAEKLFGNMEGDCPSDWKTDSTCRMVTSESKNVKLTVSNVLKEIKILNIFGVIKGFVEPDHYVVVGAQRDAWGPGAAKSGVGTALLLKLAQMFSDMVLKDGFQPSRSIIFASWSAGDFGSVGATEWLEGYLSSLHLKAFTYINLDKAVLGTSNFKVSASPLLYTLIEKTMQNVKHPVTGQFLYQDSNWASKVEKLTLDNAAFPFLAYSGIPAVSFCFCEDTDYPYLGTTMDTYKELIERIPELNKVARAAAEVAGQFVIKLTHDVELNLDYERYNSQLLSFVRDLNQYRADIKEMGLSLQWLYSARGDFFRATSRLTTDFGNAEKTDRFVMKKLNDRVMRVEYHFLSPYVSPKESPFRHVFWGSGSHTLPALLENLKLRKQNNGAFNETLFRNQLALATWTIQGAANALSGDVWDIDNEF
Protocol: as §1

[3] = biological target: T5, cell surface human TfR1 on hCMEC/D3 and SH-SY5Y cells (human, UniProt P02786 1-760); assay: flow cytometry on hCMEC/D3 cells on ice, binding to cell surface TfR1, anti-hFc Alexa647
T5 construct: whole, on cells; Endogenous receptor on the cell lines; also called cell surface TfR1; cell-surface hTfR1
T5 sequence (P02786 whole entry): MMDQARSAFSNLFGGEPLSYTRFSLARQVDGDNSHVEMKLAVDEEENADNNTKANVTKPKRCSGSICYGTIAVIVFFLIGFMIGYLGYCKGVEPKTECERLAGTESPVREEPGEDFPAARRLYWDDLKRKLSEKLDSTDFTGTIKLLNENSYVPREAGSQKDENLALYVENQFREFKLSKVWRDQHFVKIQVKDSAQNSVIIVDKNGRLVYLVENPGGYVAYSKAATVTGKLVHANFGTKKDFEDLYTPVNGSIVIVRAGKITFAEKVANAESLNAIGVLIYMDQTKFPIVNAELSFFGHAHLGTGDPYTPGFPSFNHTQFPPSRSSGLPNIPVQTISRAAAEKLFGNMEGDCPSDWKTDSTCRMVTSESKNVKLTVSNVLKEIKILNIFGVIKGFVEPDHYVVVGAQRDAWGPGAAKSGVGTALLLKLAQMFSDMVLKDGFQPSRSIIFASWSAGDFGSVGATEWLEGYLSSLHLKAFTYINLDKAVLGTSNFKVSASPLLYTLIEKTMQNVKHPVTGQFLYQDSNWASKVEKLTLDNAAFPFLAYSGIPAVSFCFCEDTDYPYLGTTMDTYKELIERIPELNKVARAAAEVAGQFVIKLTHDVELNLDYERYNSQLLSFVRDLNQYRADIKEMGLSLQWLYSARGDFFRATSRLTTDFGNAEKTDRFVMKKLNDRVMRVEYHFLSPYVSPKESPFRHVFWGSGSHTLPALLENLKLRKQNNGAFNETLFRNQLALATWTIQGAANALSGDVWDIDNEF
Protocol: Functional activity of the fully deimmunized variants was assessed using the hCMEC/D3 human endothelial cell line and the SY-SH5Y human neuronal cell line. Binding to hCMEC/D3 cells was assessed by incubation with serial antibody dilutions for 1h on ice to avoid internalization. The cells were fixed and binding to cell surface TfR1 was measured by flow cytometry. […] Internalization via cell-surface hTfR1 was assessed using the hCMEC/D3 and SY-SH5Y cell lines by incubation with the antibodies for 1 hour at 37° C.
Flow cytometry. hCMEC/D3 cells were seeded onto V-bottom 96-well plates at a density of 1×10⁴ cells/well. All incubations were carried out on ice to prevent internalization. After blocking in PBS containing 10% BSA (FACS buffer), cells were incubated with serial dilutions of TXP1. Cells were stained with propidium iodine (PI; Biolegend) for 20 min, followed by anti-hFc conjugated to Alexa647 diluted 1:300 (Jackson ImmunoResearch) for 30 min. After fixation in 4% PFA for 15 min, the cells were analyzed on a CytoFlex flow cytometer (Beckman Coulter). Gating of cells stained with secondary antibody alone was used to set the negative threshold for and the fluorescence intensity of approximately 1000 cells per condition was measured. EC50 values were calculated using a four parametric non-linear regression model.

[4] = biological target: T3, recombinant cynomolgus TfR-1; assay: ELISA, plate-coated recombinant cTfR1, anti-hFc HRP detection
Protocol: (§2) TfR1 ELISA. Nunc MaxiSorp plates were coated with 100 ul of 1 μg/ml of in-house purified recombinant human, cynomolgus TfR1 or HSA and incubated at 4° C. overnight. Plates were incubated with blocking buffer (2.5% non-fat dry milk in PBST) for 1 hr at RT. Serial dilutions of TXP1, TXPID1 or TXP1D4 were mixed with non-fat dry milk in PBST to a final concentration of 2.5% and incubated for 30 min. Blocked VNAR antibody solutions (100 μl) were transferred to the blocked plates and incubated for 1 hr. Plates were washed with PBST and incubated with anti-hFc HRP-conjugated antibody diluted 1:5,000 (Sigma) in blocking buffer for 30 min. Plates were washed and developed with SureBlue TMB substrate. Were indicated the velocity of colorimetric reaction development was measured in the kinetic mode at 370 nm and the maximum peak was used for quantitation (Vmax at 370 nm). Alternatively, the TMB reaction was stopped with 1% HCl and absorbance was measured at 450 nm (OD at 450 nm).

recombinant human TfR-1 [5] = biological target: T4, recombinant human TfR-1; assay: ELISA, plate-coated recombinant hTfR1, anti-hFc HRP detection
Protocol: as §2

HSA = biological target: T6, HSA (human, UniProt P02768 25-609); assay: ELISA, plate-coated HSA as negative control, anti-hFc HRP detection
T6 construct: also called human serum albumin (negative control)
T6 sequence (P02768 25-609 limits assumed): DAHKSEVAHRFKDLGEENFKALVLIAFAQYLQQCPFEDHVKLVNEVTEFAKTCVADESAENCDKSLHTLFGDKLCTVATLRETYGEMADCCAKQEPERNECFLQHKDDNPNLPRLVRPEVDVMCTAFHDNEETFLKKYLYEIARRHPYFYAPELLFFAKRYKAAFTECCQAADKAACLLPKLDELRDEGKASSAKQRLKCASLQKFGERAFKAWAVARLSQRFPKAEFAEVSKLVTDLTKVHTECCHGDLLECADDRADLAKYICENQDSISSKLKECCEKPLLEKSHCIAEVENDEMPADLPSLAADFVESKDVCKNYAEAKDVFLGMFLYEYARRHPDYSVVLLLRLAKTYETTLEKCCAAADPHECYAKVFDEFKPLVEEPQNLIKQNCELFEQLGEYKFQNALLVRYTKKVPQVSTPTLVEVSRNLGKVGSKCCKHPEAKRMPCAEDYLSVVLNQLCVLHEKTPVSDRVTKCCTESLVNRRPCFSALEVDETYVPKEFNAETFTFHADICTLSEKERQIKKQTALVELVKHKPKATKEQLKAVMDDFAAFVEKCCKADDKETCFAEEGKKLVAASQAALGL

recombinant human TfR-1 [6] = biological target: T4, recombinant human TfR-1; assay: SPR Biacore T200, His-tagged TfR1 captured by anti-His, multi-cycle kinetics, 1:1 model
Protocol: Binding kinetics. Binding kinetics of TXP1, TXP1D1 and TXP1D4 were determined by surface plasmon resonance (SPR) using a Biacore T200 (GE Healthcare). A His-capture kit (GE Healthcare) was used to immobilize anti-His antibodies on CM5 chips (as recommended by the manufacturer). His-tagged recombinant hTfR1 in 0.1% BSA in HBS-EP+ buffer (GE Healthcare) was captured at flow rate 10 μl/min. Analyte binding was measured using the multi-cycle kinetic SPR method. Starting analyte concentrations at 400 nM and serially diluted in 1:4 in seven steps. Association and dissociation were measured for 360s and 1500s respectively, with flow rate at 30 μl/min. The chips were regenerated in 10 mM Glycine-HCl, pH 1.5. Sensorgrams were fitted using 1:1 binding model and kinetic constants determined using Biacore T200 Evaluation software (Cytiva).

[7] = biological target: T3, recombinant cynomolgus TfR-1; assay: SPR Biacore T200, multi-cycle kinetics, 1:1 model
[8] = biological target: T3, recombinant cynomolgus TfR-1; assay: SPR Biacore T200, His-tagged TfR-1 captured by anti-His, single cycle kinetics, 1:1 model
Protocol: (§3) Binding kinetics. Binding kinetics of TXP1 and A06 VNAR antibodies were determined by surface plasmon resonance (SPR) using a Biacore T200 (GE Healthcare). A His-capture kit (GE Healthcare) was used to immobilize anti-His antibodies on CM5 chips (as recommended by the manufacturer). His-tagged recombinant cynomolgus and human TfR-1 in 0.1% BSA in HBS-EP+ buffer (GE Healthcare) was captured at flow rate 10 μl/min. Analyte binding was measured using the single cycle kinetic SPR method on a Biacore T200. Analytes were injected at increasing concentrations (0.98, 3.9, 15.6, 62.5 and 250 nM) in HBS-EP+ at flow rate 30 μl/min. A flow cell without TfR-1 captured served as a reference. The chips were regenerated in 10 mM glycine-HCl, pH 1.5. Sensorgrams were fitted using 1:1 binding model and kinetic constants determined using Biacore T200 Evaluation software (GE Healthcare). Association and dissociation were measured for 360s and 1500s respectively, with flow rate at […].

recombinant human TfR-1 [9] = biological target: T4, recombinant human TfR-1; assay: as above
Protocol: as §3

recombinant human TfR-1 [10] = biological target: T4, recombinant human TfR-1; assay: ELISA on coated hTfR1, crude ExpiHEK expression media, normalised to TXP1
Protocol: FIG. 6. Expression level and hTfR1 binding of 20 single-region variants of TXP1 measured by ELISA. Variants were designed to remove potential MHCII binding motifs in each region separately with the mutations described in Table 5. Each deimmunized variant was transiently expressed in 0.5 ml scale in ExpiHEK cells and the crude media were tested by ELISA for hTfRIbinding and expression level in comparison to parental TXP1. The data were normalized to TXP1 and the variants with binding or expression >0.5-fold were evaluated further.
Mutating the primary anchoring residue in each MHCII binding motif was prioritized to minimize manipulation of the sequence with maximal reduction in binding score. Alternative positions were also considered when replacement of an anchor residue might disrupt the protein structure or where removing the anchor residue was insufficient to eliminate MHCII binding. Based on the in silico analyses, 20 single-region deimmunized variants of TXP1 (6 in region 1, 10 in region 2, and 4 in region 3) were genetically synthesized and evaluated (Table 5). Expression and hTfR1 binding were measured in crude media from transfected ExpiHEK cells (FIG. 6). […] Region 3 required all three substitutions to eliminate predicted MHCII binding, and all three mutations individually and when combined (TXP1-R3-1-4) were expressed well and retained parental levels of TfR-1 binding.

T1 sequence (Q62351 89-763 limits assumed): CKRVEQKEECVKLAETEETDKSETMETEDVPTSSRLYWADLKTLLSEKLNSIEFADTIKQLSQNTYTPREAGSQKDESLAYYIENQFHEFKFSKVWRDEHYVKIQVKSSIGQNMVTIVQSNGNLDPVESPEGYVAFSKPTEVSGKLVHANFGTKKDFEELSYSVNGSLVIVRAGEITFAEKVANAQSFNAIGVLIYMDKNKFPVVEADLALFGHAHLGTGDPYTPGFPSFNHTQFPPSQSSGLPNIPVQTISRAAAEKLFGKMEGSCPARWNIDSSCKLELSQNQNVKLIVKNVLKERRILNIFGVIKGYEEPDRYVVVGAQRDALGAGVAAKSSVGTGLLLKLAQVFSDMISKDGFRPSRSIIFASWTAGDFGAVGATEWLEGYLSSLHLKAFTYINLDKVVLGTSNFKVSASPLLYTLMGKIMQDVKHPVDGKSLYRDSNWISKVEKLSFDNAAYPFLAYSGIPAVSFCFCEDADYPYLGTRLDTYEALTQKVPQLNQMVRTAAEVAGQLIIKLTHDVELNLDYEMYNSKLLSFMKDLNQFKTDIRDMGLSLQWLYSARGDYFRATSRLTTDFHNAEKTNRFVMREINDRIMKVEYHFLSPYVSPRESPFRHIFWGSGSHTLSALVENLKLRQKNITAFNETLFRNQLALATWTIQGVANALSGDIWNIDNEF

B1: TXP1 (Fc fusion)
chain: ARVDQTPQTITKETGESLTINCVLRDSNCALSSTYWYRKKSGSTNEENISKGGRYVETVNSGSKSFSLKINDLTVEDSGTYRCNVVGTWCMSWRDVYGGGTAVTVNA
notes: Bivalent VNAR-hFc; VNAR at the N-terminus of hFc IgG1; also called VNAR-hFc named TXP1; parental TXP1; not shown: human IgG1 Fc domain (hFc) with attenuated effector function mutations E233P/L234V/L235A/AG236 (deletion of G236)+A327G/
Recombinant mouse TfR-1
  binding result: no binding
Recombinant rat TfR-1
  binding result: no binding
[1]
  EC50: 1.6 nM
Recombinant human TfR-1 [2]
  EC50: 1.5 nM
[3]
  EC50: 2.2 nM
[4]
  EC50: 1.4 nM
Recombinant human TfR-1 [5]
  EC50: 1.9 nM
HSA
  binding result: no binding
Recombinant human TfR-1 [6]
  Kd: 5.1 nM
  koff: 0.00027 s⁻¹
  kon: 54000 M⁻¹ s⁻¹
[7]
  Kd: 1.8 nM
  koff: 9.6e-05 s⁻¹
  kon: 53000 M⁻¹ s⁻¹
[8]
  Kd: 3.14 nM
  koff: 0.000365 s⁻¹
  kon: 116000 M⁻¹ s⁻¹
Recombinant human TfR-1 [9]
  Kd: 1.03 nM
  koff: 0.000134 s⁻¹
  kon: 129000 M⁻¹ s⁻¹

B2: TXP1-R2-5 (Fc fusion)
chain: B1 chain with Y55T
notes: Single-region variant of TXP1; tested in crude expression media; not shown: human IgG1 Fc (hFc) with AEF mutations incl. deletion of G236 (printed AG236)
Recombinant human TfR-1 [10]
  hTfR1 binding relative to parental TXP1 (fold): 0.5 fold

B3: TXP1-R2-2 (Fc fusion)
chain: B1 chain with Y55H
notes: as for B2
Recombinant human TfR-1 [10]
  hTfR1 binding relative to parental TXP1 (fold): 0.5 fold

B4: TXP1-R1-3 (Fc fusion)
chain: B1 chain with I10S
notes: as for B2
Recombinant human TfR-1 [10]
  hTfR1 binding relative to parental TXP1 (fold): 0.5 fold

B5: TXP1D1 (Fc fusion)
chain: B1 chain with I10A, N60D, S63T, Y97S, G99D, A102V
notes: Fully deimmunized variant of TXP1, VNAR-hFc format; also called TXPID1; not shown: human IgG1 Fc (hFc) with AEF mutations incl. deletion of G236 (printed AG236)
[3]
  EC50: 1.6 nM
[4]
  EC50: 2.2 nM
Recombinant human TfR-1 [5]
  EC50: 3.5 nM
Recombinant human TfR-1 [6]
  Kd: 4.6 nM
  koff: 0.00031 s⁻¹
  kon: 67000 M⁻¹ s⁻¹
[7]
  Kd: 2.2 nM
  koff: 0.00016 s⁻¹
  kon: 73000 M⁻¹ s⁻¹

B6: TXP1-R2-10 (Fc fusion)
chain: B1 chain with R54K, N60Q
notes: as for B2
Recombinant human TfR-1 [10]
  hTfR1 binding relative to parental TXP1 (fold): 0.5 fold

B7: TXP1-R2-4 (Fc fusion)
chain: B1 chain with Y55S
notes: as for B2
Recombinant human TfR-1 [10]
  hTfR1 binding relative to parental TXP1 (fold): 0.5 fold

B8: TXP1-R2-6 (Fc fusion)
chain: B1 chain with N60D, S63T
notes: as for B2
Recombinant human TfR-1 [10]
  hTfR1 binding relative to parental TXP1 (fold): 0.5 fold

B9: TXP1-R2-3 (Fc fusion)
chain: B1 chain with Y55N
notes: as for B2
Recombinant human TfR-1 [10]
  hTfR1 binding relative to parental TXP1 (fold): 0.5 fold

B10: TXP1-R1-4 (Fc fusion)
chain: B1 chain with I10T
notes: as for B2
Recombinant human TfR-1 [10]
  hTfR1 binding relative to parental TXP1 (fold): 0.5 fold

B11: TXP1-R1-1 (Fc fusion)
chain: B1 chain with I10A
notes: as for B2
Recombinant human TfR-1 [10]
  hTfR1 binding relative to parental TXP1 (fold): 0.5 fold

B12: TXP1D4 (Fc fusion)
chain: B1 chain with I10A, R54K, N60E, Y97S, G99D, A102V
notes: Fully deimmunized variant of TXP1, VNAR-hFc format; also called TXPID4; not shown: human IgG1 Fc (hFc) with AEF mutations incl. deletion of G236 (printed AG236)
[3]
  EC50: 2.1 nM
[4]
  EC50: 3 nM
Recombinant human TfR-1 [5]
  EC50: 4.1 nM
Recombinant human TfR-1 [6]
  Kd: 3 nM
  koff: 0.00026 s⁻¹
  kon: 87000 M⁻¹ s⁻¹
[7]
  Kd: 1.7 nM
  koff: 0.00014 s⁻¹
  kon: 87000 M⁻¹ s⁻¹

B13: TXP1-R2-9 (Fc fusion)
chain: B1 chain with R54K, N60E
notes: as for B2
Recombinant human TfR-1 [10]
  hTfR1 binding relative to parental TXP1 (fold): 0.5 fold

B14: TXP1-R1-2 (Fc fusion)
chain: B1 chain with I10E
notes: as for B2
Recombinant human TfR-1 [10]
  hTfR1 binding relative to parental TXP1 (fold): 0.5 fold
